Key:
Rhesus CD40 ECD monomer = target: T1, Rhesus CD40 ECD monomer (rhesus, UniProt F6SNI1 21-193); test: BLI (Octet Red 96), antibody on anti-human Fc sensor, monomeric CD40 ECD as analyte, 1:1 fit
T1 construct: Recombinant monomeric CD40 ECD used as analyte; also called monomeric rhesus CD40
Protocol: (§1) Analysis of CD40 ECD interaction was performed using Octet Red 96 instrument (ForteBio). The Octet systems use propriety BLI to analyze biomolecular interaction. […] The experiments were comprised of 5 steps: (1) baseline acquisition (60 s); (2) antibodies and antibody immune-stimulatory compound conjugates loading onto anti-human Fc biosensor (120 s); (3) second baseline acquisition (60 s); (4) association of interacting monomeric CD40 ECD protein for kₒₙ measurement (120 s); (5) Dissociation of interacting monomeric CD40 ECD for koff measurement (360 s). The interacting monomeric CD40 ECD were used at 5-6 concentrations of 3-fold concentration series. Data were analyzed using Octet Data Analysis Sofware 9.0 (ForteBio) and fitted to the 1:1 binding model. Equilibrium dissociation constants (KD) were calculated by the […].

human FcγRIIIB = target: T2, human FcγRIIIB (human, UniProt O75015 17-200); test: BLI (Octet Red 96), FcγR on anti-his tag sensor, antibody as analyte, avidity fit
T2 construct: also called CD16b
Protocol: For human FcγRIIB/C, FcγRIIIA F158, FcγRIIIA V158 and FcγRIIIB interaction studies, the proteins were immobilized on anti-his tag biosensors and incubated with varying concentration of unconjugated anti-CD40 antibodies or anti-CD40 antibody immune-stimulatory compound conjugates ranging from 0.04 μM to 8 μM. […] The experiment comprised of 5 steps: (1) baseline acquisition (60 s); (2) anti-CD40 antibodies or anti-CD40 antibody immune-stimulatory compound conjugates loading onto […] (120 s); (3) second baseline acquisition (60 s); (4) association of interacting protein for kₒₙ measurement (120 s); (5) dissociation of interacting FcγR for koff measurement (300 s). The interacting anti-CD40 antibodies or anti-CD40 antibody immune-stimulatory compound conjugates were used at 4 concentrations of 2 fold concentration series. Data were analyzed using Octet Data Analysis Software 9.0 (ForteBio) and fitted to the avidity binding model. Equilibrium dissociation constants (KD) were calculated by the […].

Human CD40 ECD monomer = target: T3, Human CD40 ECD monomer (human, UniProt P25942 21-193); test: BLI (Octet Red 96), antibody on anti-human Fc sensor, monomeric CD40 ECD as analyte, 1:1 fit
T3 construct: extracellular domain; Recombinant monomeric CD40 ECD used as analyte; also called monomeric human CD40; CD40 Extracellular Domain (ECD)
Protocol: as §1

human FcγRI = target: T4, human FcγRI (human, UniProt P12314 16-288, limits assumed); test: BLI (Octet Red 96), antibody on anti-human Fc sensor, monomeric FcγR as analyte
T4 construct: Monomeric FcγR used as analyte in solution; also called CD64
Protocol: Human FcγR interaction analysis was also performed using Octet Red 96 instrument. […] The experiments were comprised of 5 steps: (1) baseline acquisition (60 s); (2) anti-CD40 antibodies or anti-CD40 antibody immune-stimulatory compound conjugates loading onto anti-human Fc biosensor (120 s); (3) second baseline acquisition (60 s); (4) association of interacting protein for kₒₙ measurement (120 s); (5) dissociation of interacting FcγR for koff measurement (300 s). The interacting monomeric FcγR were used at 5-6 concentrations of 3-fold concentration series. Data were analyzed using Octet Data Analysis Software 9.0 (ForteBio) and fitted to the 1:1 binding model. Equilibrium dissociation constants (KD) were calculated by the […].

T3 sequence (P25942 21-193): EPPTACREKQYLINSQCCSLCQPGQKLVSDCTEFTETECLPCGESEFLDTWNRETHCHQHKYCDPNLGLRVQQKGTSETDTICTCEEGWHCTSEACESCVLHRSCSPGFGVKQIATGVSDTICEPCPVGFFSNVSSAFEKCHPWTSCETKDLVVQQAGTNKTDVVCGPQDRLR
T1 sequence (F6SNI1 entry or part of it limits assumed): as the sequence (P25942 21-193) above, with G43S, H56R, W89L, T92M, A95S, L101P, S106L, H142R, L172Q counted along it
T4 sequence (P12314 16-288 limits assumed): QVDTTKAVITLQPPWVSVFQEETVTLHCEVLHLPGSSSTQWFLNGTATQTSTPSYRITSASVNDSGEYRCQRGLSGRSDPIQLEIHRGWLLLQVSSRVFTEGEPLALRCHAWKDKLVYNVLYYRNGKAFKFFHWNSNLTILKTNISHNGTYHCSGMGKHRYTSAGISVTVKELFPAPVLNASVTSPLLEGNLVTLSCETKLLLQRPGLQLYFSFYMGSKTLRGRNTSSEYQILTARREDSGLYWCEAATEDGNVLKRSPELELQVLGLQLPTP
T2 sequence (O75015 17-200 limits assumed): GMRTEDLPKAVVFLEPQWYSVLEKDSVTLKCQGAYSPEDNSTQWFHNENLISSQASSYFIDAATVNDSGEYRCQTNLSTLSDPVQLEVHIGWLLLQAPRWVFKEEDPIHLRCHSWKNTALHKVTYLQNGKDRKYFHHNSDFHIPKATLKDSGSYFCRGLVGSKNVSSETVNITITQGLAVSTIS

Binder	Kd (Rhesus CD40 ECD monomer)	Kd (human FcγRIIIB)	Kd (Human CD40 ECD monomer)	binding result (human FcγRI)
SBT-040-WT-ATAC11 (antibody, human IgG1, kappa, ATAC11 on reduced cysteines; sites not stated (heavy or light chain); ATAC11 (maleimide-PEG4 linker with immune-stimulatory compound) on reduced cysteines; sites not stated (heavy or light chain); DAR 4.5) heavy: not shown light: DIQMTQSPSSVSASVGDRVTITCRASQGIYSWLAWYQQKPGKAPNLLIYTASTLQSGVPSRFSGSGSGTDFTLTISSLQPEDFATYYCQQANIFPLTFGGGTKVEIKRTVAAPSVFIFPPSDEQLKSGTASVVCLLNNFYPREAKVQWKVDNALQSGNSQESVTEQDSKDSTYSLSSTLTLSKADYEKHKVYACEVTHQGLSSPVTKSFNRGEC	13.5 nM	5000 nM	–	–
SBT-040-WT antibody (antibody, human IgG1, kappa, also called SBT-040-G1) heavy: not shown light: DIQMTQSPSSVSASVGDRVTITCRASQGIYSWLAWYQQKPGKAPNLLIYTASTLQSGVPSRFSGSGSGTDFTLTISSLQPEDFATYYCQQANIFPLTFGGGTKVEIKRTVAAPSVFIFPPSDEQLKSGTASVVCLLNNFYPREAKVQWKVDNALQSGNSQESVTEQDSKDSTYSLSSTLTLSKADYEKHKVYACEVTHQGLSSPVTKSFNRGEC	14 nM	3600 nM	–	–
SBT-040-G2 (antibody, human IgG2, kappa, also called SBT-040-G2WT) heavy: not shown light: DIQMTQSPSSVSASVGDRVTITCRASQGIYSWLAWYQQKPGKAPNLLIYTASTLQSGVPSRFSGSGSGTDFTLTISSLQPEDFATYYCQQANIFPLTFGGGTKVEIKRTVAAPSVFIFPPSDEQLKSGTASVVCLLNNFYPREAKVQWKVDNALQSGNSQESVTEQDSKDSTYSLSSTLTLSKADYEKHKVYACEVTHQGLSSPVTKSFNRGEC	12.4 nM	–	7.7 nM	no binding (tested: 1.2 nM to 1 µM FcγR)
SBT-040-WT-ATAC22 (antibody, human IgG1, kappa, ATAC22 on reduced cysteines; sites not stated (heavy or light chain); ATAC22 (maleimidocaproyl-Val-Ala-PAB linker with immune-stimulatory compound) on reduced cysteines; sites not stated (heavy or light chain); DAR 4.6) heavy: not shown light: DIQMTQSPSSVSASVGDRVTITCRASQGIYSWLAWYQQKPGKAPNLLIYTASTLQSGVPSRFSGSGSGTDFTLTISSLQPEDFATYYCQQANIFPLTFGGGTKVEIKRTVAAPSVFIFPPSDEQLKSGTASVVCLLNNFYPREAKVQWKVDNALQSGNSQESVTEQDSKDSTYSLSSTLTLSKADYEKHKVYACEVTHQGLSSPVTKSFNRGEC	13.6 nM	2710 nM	8 nM	–
SBT-040-G2-ATAC22 (antibody, human IgG2, kappa, ATAC22 on reduced cysteines; sites not stated (heavy or light chain); ATAC22 (maleimidocaproyl-Val-Ala-PAB linker with immune-stimulatory compound) on reduced cysteines; sites not stated (heavy or light chain); DAR 4.1) heavy: not shown light: DIQMTQSPSSVSASVGDRVTITCRASQGIYSWLAWYQQKPGKAPNLLIYTASTLQSGVPSRFSGSGSGTDFTLTISSLQPEDFATYYCQQANIFPLTFGGGTKVEIKRTVAAPSVFIFPPSDEQLKSGTASVVCLLNNFYPREAKVQWKVDNALQSGNSQESVTEQDSKDSTYSLSSTLTLSKADYEKHKVYACEVTHQGLSSPVTKSFNRGEC	15.2 nM	–	7.2 nM	no binding (tested: 1.2 nM to 1 µM FcγR)
SBT-040-G2-ATAC11 (antibody, human IgG2, kappa, ATAC11 on reduced cysteines; sites not stated (heavy or light chain); ATAC11 (maleimide-PEG4 linker with immune-stimulatory compound) on reduced cysteines; sites not stated (heavy or light chain); DAR 4.0) heavy: not shown light: DIQMTQSPSSVSASVGDRVTITCRASQGIYSWLAWYQQKPGKAPNLLIYTASTLQSGVPSRFSGSGSGTDFTLTISSLQPEDFATYYCQQANIFPLTFGGGTKVEIKRTVAAPSVFIFPPSDEQLKSGTASVVCLLNNFYPREAKVQWKVDNALQSGNSQESVTEQDSKDSTYSLSSTLTLSKADYEKHKVYACEVTHQGLSSPVTKSFNRGEC	14 nM	–	7.4 nM	no binding (tested: 1.2 nM to 1 µM FcγR)
SBT-040-G2-ATAC4 (antibody, human IgG2, kappa, ATAC4 on lysines; sites not stated (heavy or light chain); ATAC4 (PEG linker with activated ester and immune-stimulatory compound) on lysines; sites not stated (heavy or light chain); DAR 2.9) heavy: not shown light: DIQMTQSPSSVSASVGDRVTITCRASQGIYSWLAWYQQKPGKAPNLLIYTASTLQSGVPSRFSGSGSGTDFTLTISSLQPEDFATYYCQQANIFPLTFGGGTKVEIKRTVAAPSVFIFPPSDEQLKSGTASVVCLLNNFYPREAKVQWKVDNALQSGNSQESVTEQDSKDSTYSLSSTLTLSKADYEKHKVYACEVTHQGLSSPVTKSFNRGEC	13.6 nM	–	8.7 nM	no binding (tested: 1.2 nM to 1 µM FcγR)
SBT-040-WT-ATAC4 (antibody, human IgG1, kappa, ATAC4 on lysines; sites not stated (heavy or light chain); ATAC4 (PEG linker with activated ester and immune-stimulatory compound) on lysines; sites not stated (heavy or light chain); DAR 4.6, also called SBT-040-G1-ATAC4) heavy: not shown light: DIQMTQSPSSVSASVGDRVTITCRASQGIYSWLAWYQQKPGKAPNLLIYTASTLQSGVPSRFSGSGSGTDFTLTISSLQPEDFATYYCQQANIFPLTFGGGTKVEIKRTVAAPSVFIFPPSDEQLKSGTASVVCLLNNFYPREAKVQWKVDNALQSGNSQESVTEQDSKDSTYSLSSTLTLSKADYEKHKVYACEVTHQGLSSPVTKSFNRGEC	12.9 nM	3240 nM	9.3 nM	–
SBT-040-G2-ATAC3 (antibody, human IgG2, kappa, ATAC3 on lysines; sites not stated (heavy or light chain); ATAC3 (PEG linker with activated ester and immune-stimulatory compound) on lysines; sites not stated (heavy or light chain); DAR 3.3) heavy: not shown light: DIQMTQSPSSVSASVGDRVTITCRASQGIYSWLAWYQQKPGKAPNLLIYTASTLQSGVPSRFSGSGSGTDFTLTISSLQPEDFATYYCQQANIFPLTFGGGTKVEIKRTVAAPSVFIFPPSDEQLKSGTASVVCLLNNFYPREAKVQWKVDNALQSGNSQESVTEQDSKDSTYSLSSTLTLSKADYEKHKVYACEVTHQGLSSPVTKSFNRGEC	11.5 nM	3930 nM	7.3 nM	no binding (tested: 1.2 nM to 1 µM FcγR)
SBT-040-WT-ATAC3 (antibody, human IgG1, kappa, ATAC3 on lysines; sites not stated (heavy or light chain); ATAC3 (PEG linker with activated ester and immune-stimulatory compound) on lysines; sites not stated (heavy or light chain); DAR 5.4, also called SBT-040-G1-ATAC3) heavy: not shown light: DIQMTQSPSSVSASVGDRVTITCRASQGIYSWLAWYQQKPGKAPNLLIYTASTLQSGVPSRFSGSGSGTDFTLTISSLQPEDFATYYCQQANIFPLTFGGGTKVEIKRTVAAPSVFIFPPSDEQLKSGTASVVCLLNNFYPREAKVQWKVDNALQSGNSQESVTEQDSKDSTYSLSSTLTLSKADYEKHKVYACEVTHQGLSSPVTKSFNRGEC	13.1 nM	1500 nM	9 nM	–
SBT-040-AAA-ATAC22 (antibody, human IgG1, kappa, ATAC22 on reduced cysteines; sites not stated (heavy or light chain); ATAC22 (maleimidocaproyl-Val-Ala-PAB linker with immune-stimulatory compound) on reduced cysteines; sites not stated (heavy or light chain); DAR 4.1) heavy: not shown light: DIQMTQSPSSVSASVGDRVTITCRASQGIYSWLAWYQQKPGKAPNLLIYTASTLQSGVPSRFSGSGSGTDFTLTISSLQPEDFATYYCQQANIFPLTFGGGTKVEIKRTVAAPSVFIFPPSDEQLKSGTASVVCLLNNFYPREAKVQWKVDNALQSGNSQESVTEQDSKDSTYSLSSTLTLSKADYEKHKVYACEVTHQGLSSPVTKSFNRGEC	–	–	5 nM	–
SBT-040-AAA-ATAC11 (antibody, human IgG1, kappa, ATAC11 on reduced cysteines; sites not stated (heavy or light chain); ATAC11 (maleimide-PEG4 linker with immune-stimulatory compound) on reduced cysteines; sites not stated (heavy or light chain); DAR 2.9) heavy: not shown light: DIQMTQSPSSVSASVGDRVTITCRASQGIYSWLAWYQQKPGKAPNLLIYTASTLQSGVPSRFSGSGSGTDFTLTISSLQPEDFATYYCQQANIFPLTFGGGTKVEIKRTVAAPSVFIFPPSDEQLKSGTASVVCLLNNFYPREAKVQWKVDNALQSGNSQESVTEQDSKDSTYSLSSTLTLSKADYEKHKVYACEVTHQGLSSPVTKSFNRGEC	–	3830 nM	–	–
SBT-040-VLPLL-ATAC22 (antibody, human IgG1, kappa, ATAC22 on reduced cysteines; sites not stated (heavy or light chain); ATAC22 (maleimidocaproyl-Val-Ala-PAB linker with immune-stimulatory compound) on reduced cysteines; sites not stated (heavy or light chain); DAR 3.9) heavy: not shown light: DIQMTQSPSSVSASVGDRVTITCRASQGIYSWLAWYQQKPGKAPNLLIYTASTLQSGVPSRFSGSGSGTDFTLTISSLQPEDFATYYCQQANIFPLTFGGGTKVEIKRTVAAPSVFIFPPSDEQLKSGTASVVCLLNNFYPREAKVQWKVDNALQSGNSQESVTEQDSKDSTYSLSSTLTLSKADYEKHKVYACEVTHQGLSSPVTKSFNRGEC	–	–	7.5 nM	–
SBT-040-VLPLL-ATAC11 (antibody, human IgG1, kappa, ATAC11 on reduced cysteines; sites not stated (heavy or light chain); ATAC11 (maleimide-PEG4 linker with immune-stimulatory compound) on reduced cysteines; sites not stated (heavy or light chain); DAR 2.9) heavy: not shown light: DIQMTQSPSSVSASVGDRVTITCRASQGIYSWLAWYQQKPGKAPNLLIYTASTLQSGVPSRFSGSGSGTDFTLTISSLQPEDFATYYCQQANIFPLTFGGGTKVEIKRTVAAPSVFIFPPSDEQLKSGTASVVCLLNNFYPREAKVQWKVDNALQSGNSQESVTEQDSKDSTYSLSSTLTLSKADYEKHKVYACEVTHQGLSSPVTKSFNRGEC	–	–	7.6 nM	–

From patent US20170298139A1 (OPI VI IP HOLDCO, published 2017)
